The source of these data is PMC8099778.

This assay deals with myosin VI (mouse (endogenous in mouse brain)) (UniProt Q64331). The experiment in a line: co-IP.
Chain of UniProt Q64331 (Q64331 whole entry): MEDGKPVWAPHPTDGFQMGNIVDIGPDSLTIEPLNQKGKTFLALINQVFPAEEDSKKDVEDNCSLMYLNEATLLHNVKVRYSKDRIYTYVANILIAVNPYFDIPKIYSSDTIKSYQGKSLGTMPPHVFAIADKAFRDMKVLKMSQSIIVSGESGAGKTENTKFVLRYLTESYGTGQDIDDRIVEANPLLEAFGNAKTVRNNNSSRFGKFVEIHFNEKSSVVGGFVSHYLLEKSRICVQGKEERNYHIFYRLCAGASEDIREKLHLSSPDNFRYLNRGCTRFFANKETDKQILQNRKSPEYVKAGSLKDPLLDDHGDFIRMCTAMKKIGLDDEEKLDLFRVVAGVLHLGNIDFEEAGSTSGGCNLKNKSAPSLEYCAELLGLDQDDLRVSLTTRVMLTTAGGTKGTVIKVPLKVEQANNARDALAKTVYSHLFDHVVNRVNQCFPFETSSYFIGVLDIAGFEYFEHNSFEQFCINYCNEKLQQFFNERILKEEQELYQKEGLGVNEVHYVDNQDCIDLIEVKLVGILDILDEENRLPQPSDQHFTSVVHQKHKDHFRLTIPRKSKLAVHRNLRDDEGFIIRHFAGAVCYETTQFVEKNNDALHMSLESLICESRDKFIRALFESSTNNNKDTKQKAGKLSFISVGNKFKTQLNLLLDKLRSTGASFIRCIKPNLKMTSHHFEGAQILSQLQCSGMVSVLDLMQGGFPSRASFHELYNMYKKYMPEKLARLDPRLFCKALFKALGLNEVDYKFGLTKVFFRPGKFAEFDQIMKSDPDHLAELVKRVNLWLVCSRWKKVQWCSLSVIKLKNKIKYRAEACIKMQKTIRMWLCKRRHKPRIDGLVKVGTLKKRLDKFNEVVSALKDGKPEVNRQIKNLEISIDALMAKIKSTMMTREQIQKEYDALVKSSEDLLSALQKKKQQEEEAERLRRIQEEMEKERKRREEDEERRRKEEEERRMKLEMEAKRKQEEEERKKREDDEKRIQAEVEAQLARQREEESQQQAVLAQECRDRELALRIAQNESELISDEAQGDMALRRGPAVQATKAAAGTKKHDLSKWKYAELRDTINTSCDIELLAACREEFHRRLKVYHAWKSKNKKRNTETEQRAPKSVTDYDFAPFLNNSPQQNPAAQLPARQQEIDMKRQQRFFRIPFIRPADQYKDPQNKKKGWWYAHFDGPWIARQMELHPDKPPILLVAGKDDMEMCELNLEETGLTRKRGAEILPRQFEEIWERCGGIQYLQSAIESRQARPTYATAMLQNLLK

For the substance “dynein intermediate chain (from UniProt O88485 1-628) (natural protein)”, the DIC coprecipitation normalized to myosin VI immunoprecipitation (wt lysate) came to 1.44.
